Source: the supplement of paper PMC12783771
± gives the standard deviation of the averaged measurements.

B1: library; numbered along this chain (parent)
chain: MNIQIGELAKRTACPVVTIRFYEQEGLLPPPGRSRGNFRLYGEEHVERLQFIRHCRSLDMPLSDVRTLLSYRKRPDQDCGEVNMLLDEHIRQVESRIGALLELKHHLVELREACSGARPAQSCGILQGLSDCVCDTRGTTAHPSD

Experiments:
[1] = variants of: B1; assay: sfGFP reporter fluorescence (15 h) (µM FITC); higher = higher leak; settings: library round: Round 1; ligand: none
In short: (§1)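 Readout was endpoint sfGFP fluorescence, converted to µM FITC through standard curves. Reactions were 1 μL of BL21 Star (DE3) PANOx-SP extract with pPbrR-sfGFP reporter, 30 μg/mL GamS and linear PbrR templates normalized to 5 nM, containing 1 µM lead chloride, 30 µM zinc acetate or no metal. Incubation lasted 15 hr at 30 °C, with up to three biological replicates.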

[2] = variants of: B1; assay: sfGFP reporter fluorescence (15 h) (µM FITC); higher = stronger transcriptional activation; settings: library round: Round 1
In short: as §1

[3] = variants of: B1; assay: sfGFP reporter fluorescence (15 h) (µM FITC); higher = higher leak; settings: library round: Round 0; ligand: none
Description: (§2)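 Cell-free (BL21 Star DE3 extract, PANOx-SP) biosensing: 1 µL Echo-assembled reactions with linear PbrR variant templates (5 nM) and pPbrR-sfGFP reporter, with 1 µM Pb (lead chloride), 30 µM Zn (zinc acetate) or no ligand; endpoint sfGFP fluorescence after 15 h at 30 °C, calibrated as µM FITC. Round 0 library (alanine scan, site saturation, combinatorial) of PbrR from Cupriavidus metallidurans; 2 biological replicates.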

[4] = variants of: B1; assay: sfGFP reporter fluorescence (15 h) (µM FITC); higher = stronger transcriptional activation; settings: library round: Round 0
Description: as §2

Variant | sfGFP reporter fluorescence [1] | sfGFP reporter fluorescence ([2]; ligand: 1 µM Pb) | sfGFP reporter fluorescence ([2]; ligand: 30 µM Zn) | sfGFP reporter fluorescence [3] | sfGFP reporter fluorescence ([4]; ligand: 1 µM Pb) | sfGFP reporter fluorescence ([4]; ligand: 30 µM Zn)
E109L D135R | 0.0677 ± 0.0015 | 0.0959 ± 0.0042 | 0.406 ± 0.061 | – | – | –
L107C E109H | 0.16 ± 0.0068 | 0.673 ± 0.092 | 1.68 ± 0.14 | – | – | –
E109I R111L | 0.0627 ± 0.0016 | 0.0717 ± 0.003 | 0.217 ± 0.0064 | – | – | –
N83T L85A | 0.06145 ± 0.00056 | 0.0596 ± 0.0031 | 0.0602 ± 0.00076 | – | – | –
N83T L85M | 0.0622 ± 0.0036 | 0.0669 ± 0.0024 | 0.105 ± 0.003 | – | – | –
D131H D135P | 0.0673 ± 0.0015 | 0.0988 ± 0.017 | 0.455 ± 0.04 | – | – | –
N83S D131A D135A | 0.0661 ± 0.0022 | 0.082 ± 0.01 | 0.275 ± 0.028 | – | – | –
M60L D64K L107C E109L G128I D131T | 2.84 ± 0.3 | 2.23 ± 0.17 | 2.37 ± 0.23 | – | – | –
P61N D64K V108H | 0.139 ± 0.0027 | 0.462 ± 0.044 | 1.48 ± 0.026 | – | – | –
P61A L107C G128M | 1.26 ± 0.063 | 1.47 ± 0.35 | 2.25 ± 0.16 | – | – | –
D135R P143A | 0.0577 ± 0.0043 | 0.0707 ± 0.0053 | 0.317 ± 0.04 | – | – | –
P61N L68F I90T | 0.0702 ± 0.0011 | 0.0958 ± 0.017 | 0.435 ± 0.044 | – | – | –
D135A T136S | 0.065 ± 0.00085 | 0.0751 ± 0.0085 | 0.424 ± 0.047 | – | – | –
P61L D64K | 0.06157 ± 0.00037 | 0.0655 ± 0.0074 | 0.06389 ± 0.00056 | – | – | –
V82I E112I D131C | 0.0625 ± 0.0026 | 0.0635 ± 0.0028 | 0.0669 ± 0.0057 | – | – | –
P61N L62I | 0.0668 ± 0.0015 | 0.0856 ± 0.0013 | 0.379 ± 0.015 | – | – | –
G32S C55M | 0.0668 ± 0.0018 | 0.0712 ± 0.0065 | 0.101 ± 0.0013 | – | – | –
D64K I97A | 0.2087 ± 0.002 | 0.581 ± 0.17 | 2.21 ± 0.066 | – | – | –
N83R D135A | 0.0635 ± 0.0017 | 0.0787 ± 0.005 | 0.0875 ± 0.0015 | – | – | –
E112I D131C | 0.06499 ± 0.00042 | 0.0652 ± 0.002 | 0.083 ± 0.0019 | – | – | –
R20W R111L | 0.06866 ± 0.00056 | 0.0663 ± 0.0045 | 0.0727 ± 0.0011 | – | – | –
M60L D64K G128T D135A | 0.874 ± 0.016 | 1.32 ± 0.071 | 2.33 ± 0.27 | – | – | –

Variant | sfGFP reporter fluorescence [1] | sfGFP reporter fluorescence ([2]; ligand: 1 µM Pb) | sfGFP reporter fluorescence ([2]; ligand: 30 µM Zn) | sfGFP reporter fluorescence [3] | sfGFP reporter fluorescence ([4]; ligand: 1 µM Pb) | sfGFP reporter fluorescence ([4]; ligand: 30 µM Zn)
K104V D135A | 0.0696 ± 0.0011 | 0.123 ± 0.0063 | 0.678 ± 0.073 | – | – | –
N83T V108N | 0.06328 ± 0.00021 | 0.0698 ± 0.0061 | 0.132 ± 0.0091 | – | – | –
G128H P143W | 0.0661 ± 0.0013 | 0.086 ± 0.0043 | 0.159 ± 0.012 | – | – | –
G36F M60L P61N | 0.0662 ± 0.0022 | 0.0735 ± 0.0027 | 0.143 ± 0.007 | – | – | –
N83T C123L | 0.0594 ± 0.0013 | 0.0586 ± 0.0016 | 0.059 ± 0.0017 | – | – | –
K104V V108K | 0.109 ± 0.0044 | 0.316 ± 0.063 | 1.44 ± 0.15 | – | – | –
K104V V108R | 0.109 ± 0.0031 | 0.386 ± 0.041 | 1.52 ± 0.1 | – | – | –
P61N E112V | 0.0641 ± 0.0026 | 0.0906 ± 0.0036 | 0.387 ± 0.058 | – | – | –
N83W P143A | 0.0616 ± 0.0013 | 0.0688 ± 0.0011 | 0.0621 ± 0.0015 | – | – | –
N83T I97G | 0.06365 ± 0.00056 | 0.0646 ± 0.0051 | 0.0965 ± 0.0021 | – | – | –
N83T I97N | 0.06206 ± 0.00056 | 0.064 ± 0.0017 | 0.0862 ± 0.0011 | – | – | –
N83Y K104V | 0.0651 ± 0.0031 | 0.119 ± 0.024 | 0.0894 ± 0.0065 | – | – | –
M60L D64K K104V D131C | 0.504 ± 0.028 | 1.29 ± 0.22 | 1.91 ± 0.2 | – | – | –
R111V P143T | 0.0627 ± 0.002 | 0.0715 ± 0.0029 | 0.25 ± 0.011 | – | – | –
P61D D64K D135A | 0.15 ± 0.0062 | 0.321 ± 0.036 | 1.12 ± 0.11 | – | – | –
D131S D135A | 0.0649 ± 0.0016 | 0.0893 ± 0.0049 | 0.459 ± 0.015 | – | – | –
D131S D135P | 0.0663 ± 0.0043 | 0.105 ± 0.0076 | 0.547 ± 0.082 | – | – | –
E109D D135R | 0.06377 ± 0.00037 | 0.0733 ± 0.0076 | 0.422 ± 0.031 | – | – | –
S57A | – | – | – | 0.059 ± 0.0015 | 0.0575 ± 0.001 | 0.184 ± 0.011
E109A R111L | 0.06463 ± 0.00021 | 0.0688 ± 0.0022 | 0.1654 ± 0.00092 | – | – | –
N83T E109F | 0.0638 ± 0.0013 | 0.0862 ± 0.0036 | 0.315 ± 0.0065 | – | – | –
N83S D135P | 0.0623 ± 0.00073 | 0.0811 ± 0.0058 | 0.145 ± 0.004 | – | – | –
